Laboratory results as given in patent US20260070975A1.

Target: c-Kit expressed on the cell surface of M-07e cells (human) (UniProt P10721)
Experiment: flow cytometry on M-07e cells

c-Kit expressed on the cell surface of M-07e cells (human), sequence (P10721 26-976): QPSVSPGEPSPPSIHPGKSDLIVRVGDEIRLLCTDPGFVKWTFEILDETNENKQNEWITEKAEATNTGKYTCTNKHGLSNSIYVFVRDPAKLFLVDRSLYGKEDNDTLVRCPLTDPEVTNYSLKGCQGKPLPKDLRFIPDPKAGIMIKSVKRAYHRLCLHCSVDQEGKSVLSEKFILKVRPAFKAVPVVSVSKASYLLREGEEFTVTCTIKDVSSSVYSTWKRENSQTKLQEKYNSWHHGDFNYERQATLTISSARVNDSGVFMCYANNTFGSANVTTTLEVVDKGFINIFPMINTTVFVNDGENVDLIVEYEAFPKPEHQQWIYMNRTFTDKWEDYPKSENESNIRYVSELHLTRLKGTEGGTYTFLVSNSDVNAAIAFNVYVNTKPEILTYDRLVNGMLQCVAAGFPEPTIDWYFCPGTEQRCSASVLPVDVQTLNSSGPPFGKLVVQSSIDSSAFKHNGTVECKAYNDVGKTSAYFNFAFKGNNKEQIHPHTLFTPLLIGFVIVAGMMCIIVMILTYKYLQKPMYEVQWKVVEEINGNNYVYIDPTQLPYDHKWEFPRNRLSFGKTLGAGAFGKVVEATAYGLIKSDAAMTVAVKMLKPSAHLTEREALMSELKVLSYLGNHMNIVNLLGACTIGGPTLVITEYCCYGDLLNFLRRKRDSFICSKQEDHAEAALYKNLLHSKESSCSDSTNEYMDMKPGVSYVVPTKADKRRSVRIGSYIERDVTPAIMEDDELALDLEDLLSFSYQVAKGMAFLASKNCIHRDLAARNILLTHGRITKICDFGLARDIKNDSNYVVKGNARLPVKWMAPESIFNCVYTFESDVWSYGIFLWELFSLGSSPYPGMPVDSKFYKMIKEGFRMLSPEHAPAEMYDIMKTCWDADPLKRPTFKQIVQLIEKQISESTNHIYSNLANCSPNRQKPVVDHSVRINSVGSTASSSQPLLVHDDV

In the case of hIgG1 control (antibody), the Measuring Fluorescent Intensity (MFI) is reported as 85 MFI and the Percent Positive for c-Kit on M-07e cells is reported as 2.3%.
